# Assay results: the RNAGym collection of RNA variant scans (doi:10.1073/pnas.2313332121)
# Variants at the floor of the assay were thinned out.
# B1: TPR 5TU (parent)
# chain: GGAUCUUCUCGAUCUAACAAAAAAGACAAAUCUGCCACAAAGCUUGAGAGCAUCUUCGGAUGCAGAGGCGGCAGCCUUCGGUGGCGCGAUAGCGCCAACGUUCUCAACUAUGACACGCAAAACGCGUGCUCCGUUGAAUGGAGUUUAUCAUG
# Variants of: B1
# Assay: polymerase ribozyme fitness, log enrichment relative to wild type (log ratio); higher = more active; in vitro selection for triplet polymerase activity
# Method in brief: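 Libraries of mutants in each subunit of a heterodimeric triplet polymerase ribozyme were generated by PCR and transcribed. In triplicate, each went through one in vitro selection round: annealing with biotinylated primer, partner subunit and triplets; frozen incubation at −7 °C; gel excision of extended constructs; streptavidin-bead capture; RT-PCR. Fitness, taken from Illumina sequencing of input and output libraries, is the logarithm of a genotype's enrichment over wild-type enrichment, averaged across replicates with inverse-variance weights. The logarithm is base 2, and genotypes needed ≥10 input reads and ≥1 read per output to be kept.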
row,Variant,polymerase ribozyme fitness (log ratio)
1,A37U G48C,-2.02
2,A37C U61A,-1.77
3,A37G C57G C69A C85U A120U,-3.21
4,C38G G58C G92U C105G U146C,-2.53
5,C36U A60G C75G G92C,≤ -4.2
6,C36U U55A G58A A91U C93U U127A U148C,≤ -4.2
7,A37C U55G G81A C87A A106C A107U G143U,≤ -4.2
8,C38U A89C C93U G124C,-2.94
9,A37C G62C G86A C96G C99A,≤ -4.2
10,C38G U55G C76A G141A,≤ -4.2
11,A37U G80C A91C A150U,≤ -4.2
12,A37C G84U A120G,-2.19
13,C38G G143C C149U,≤ -4.2
14,C38A G59U C85U U90C,≤ -4.2
15,C38G A47C,-0.652
16,C36U A49C C95A U145C,≤ -4.2
17,C35U A41G G68A C96G A98C C108G G126U U135C,≤ -4.2
18,A37U C96U,-1.52
19,C35U G81C C85G,-1.5
20,A37C A98U,0.384
21,C38U C57U A106U U146G,-2.36
22,A37G A66U,≤ -4.2
23,C36A U55A G124A G141U,≤ -4.2
24,C38A C85U,-0.235

row,Variant,polymerase ribozyme fitness (log ratio)
1,C36U G92C G100U G117A A122G,≤ -4.2
2,A37U C75G C87G C93U U101C,≤ -4.2
3,A37G A52G C54A,-2.77
4,C35U U53A U135A G143C,-4.16
5,C36U A97U U130C,-1.25
6,C35U C95U C96A,-1.64
7,C36U C54G U55C C75U C93U U146A,≤ -4.2
8,A37G C57U G71U G92C C96U A97C A150C U151A,≤ -4.2
9,A37U G59A,-0.836
10,C36A U82C C93U U135G,≤ -4.2
11,C36U G50C U53A G59C U78A,≤ -4.2
12,C35U C85G A98U A115G C132A U135A,≤ -4.2
13,A37G G141U U145G,-3.34
14,C38U A73U A107C C108U A115G,≤ -4.2
15,C36U C114U C131A,≤ -4.2
16,C35U A60G U102C C116A,-3.97
17,C38U A97G,-0.0867
18,C36A C57U C63A G86A A147G,≤ -4.2
19,C38A A64C G88C,≤ -4.2
20,A37G A47C G83U,-4.12
21,C35U G50A U53A U56A C85A C93A C95U,≤ -4.2
22,C36U C87U C93A C95G,≤ -4.2
23,A37U A49C A73U C75G A106C,≤ -4.2
24,C35U A60G G83A A150G,-2.56

row,Variant,polymerase ribozyme fitness (log ratio)
1,C35U C54A G58C,-1.17
2,C38G C95A G141U,1.02
3,A37U C72A G126C,≤ -4.2
4,C36U,-0.919
5,C36G,-3.16
6,C36A,-2.97
7,A37C G42U G58A C96A G117U U146A,≤ -4.2
8,C36G A40C G42C C54U G68A C118G C131A U135G C149A,≤ -4.2
9,C38U C57U C93A A142U,-3.5
10,A37C A60U C63U G86U A98G,-3.99
11,C35U G59A,0.0486
12,A37G G136A U146C,-1.88
13,A37G G84U G92A U102G G117U G140A U144A,≤ -4.2
14,C38G A41U C93G A110C,≤ -4.2
15,C36U G48U C96G C103G A121C,-2.74
16,C38G U53A G80A,-2.37
17,A37G A49U C51U C85U G92A C96A A97G U144A U146G,≤ -4.2
18,A37U G84A C118U A122U,-1.57
19,C36U A98U,-1.07
20,C38U A60U,-1.14
21,A37U G71A C125A,≤ -4.2
22,C38U A66G,≤ -4.2
23,C35U G70A G83A C116G A120C U134A,≤ -4.2
24,A37U U53A G68A A98U,≤ -4.2

row,Variant,polymerase ribozyme fitness (log ratio)
1,C36U C93A A110C U139A,≤ -4.2
2,C35U G50A U82C G141U,-4.1
3,C35U C105G G126A,-2.32
4,C35U G81C U109G C116U,-3.18
5,C35U A97U,-2.26
6,C38A C75G C96G,≤ -4.2
7,A37C C51A G92U A106C,≤ -4.2
8,C35U A49C G94C A98G C118U,≤ -4.2
9,C35U C114U U139A,≤ -4.2
10,C38U C54A U82C U134G,-3.4
11,C36U U82A G83A G84A G86U C93A C96U G117U,-3.98
12,A37U G81U C85U A137C,≤ -4.2
13,C36A A64C G86C G133U,≤ -4.2
14,C35U U55G A60C A91U A119G A121U C149G,≤ -4.2
15,C36U A52U U53C C79U A91U U135A,≤ -4.2
16,C36A A110U A122U,≤ -4.2
17,C38A G80U C125U,-2.34
18,A37G U56A G124C U134A U144A,≤ -4.2
19,A37C A52G G84C U130A G143C,≤ -4.2
20,C36A C57A C79A G83U C93G C114U,≤ -4.2
21,C36A C85A C118U,-3.82
22,C36A G143U,-4.12
23,C36U U56A C79G U90G A106G C125U,≤ -4.2
24,C35U A39U G50A C51U G83A C123U,≤ -4.2

row,Variant,polymerase ribozyme fitness (log ratio)
1,C36A A89U C116A A120U,-4.18
2,C36G C43U C85U A115C C116A,-4.15
3,C36A A91U U145C,≤ -4.2
4,C35U C93G G126A C131U U139A,-4.11
5,C38A U55C A66G G80A U90A U127C,≤ -4.2
6,C36U C57A,-0.483
7,C36A G74C,≤ -4.2
8,C36A C116A,-3.76
9,C36A G48A G50A C69G G71A,≤ -4.2
10,C36A A49U C63U C79G C87U A106G G133A U144C,≤ -4.2
11,C38A A52G C63A,-1.26
12,A37G G59C A147C,-2.8
13,C36A C51G C85A,≤ -4.2
14,C35U C95U G126A,-1.49
15,C35U G58A A150G,-1.55
16,C36G C95A C103U U134A A138C,≤ -4.2
17,A37C C87A,≤ -4.2
18,C38G G50A G58C A60G U145G,≤ -4.2
19,C36A A60G G143A,≤ -4.2
20,A37U C57G U61A G71U A91G U139G,≤ -4.2
21,A37G A40G A41G C76U C87U C93G C125G,≤ -4.2
22,C35U C114U,-2.28
23,C35U C114A,-3.87
24,C38U A49G G92U C103U G124U,-1.7

row,Variant,polymerase ribozyme fitness (log ratio)
1,A37G C54U C131U,-1.58
2,C35U U53A G92U C103U C114G A115U A122U,≤ -4.2
3,C38A U82G A91G A106C A138G,≤ -4.2
4,C36U G141C,-2.17
5,C35U G50U C93G,-3.56
6,C38U C63U,0.178
7,C35G U55A A60C C75G C114G A119U,≤ -4.2
8,C36U G59A G94U A107C G133C G140U U144G,≤ -4.2
9,C38A C63A U90A G124U,≤ -4.2
10,C38G C54G C79U G117A,≤ -4.2
11,C35U U56A,0.225
12,A37G U55A C85U C96U A107C C125A U144A A147U,≤ -4.2
13,C38A C57U A113U,-1.65
14,C36U U61G U82G C85U,-3.95
15,C35U A41U C54U C76G C85A A98G,≤ -4.2
16,C36A G50A A64U A66C A98U U104A U109G U148G,≤ -4.2
17,A37U A40G C76G C93A C103G,≤ -4.2
18,A37C C72U G88C A89U A138U U145G,≤ -4.2
19,C36U C69A A91U G94U C118U A121U,≤ -4.2
20,C35G U45C G67U G83C,≤ -4.2
21,C38G C87U C125U G141A,-3.12
22,C35U A147C,-0.582
23,C36U C96G G117U G152A,-3.09
24,C35U C54A U55A G80C C108U U127A,≤ -4.2

row,Variant,polymerase ribozyme fitness (log ratio)
1,C36U G46A G70A G83C A120U G133C,-3.23
2,A37G C87U G136U,-3.7
3,C38G G59C C63U G83U U90G G126U,≤ -4.2
4,C38U A47G C51G C93U,-3.21
5,C35U A106C U144A,-2.33
6,C38A C131G U146C U151A,≤ -4.2
7,C35U C87U,-0.746
8,C36U C85A C93A C114U,≤ -4.2
9,C38U A47C U102C A119U,-3.66
10,C36A A138U U145A A147C,-3.85
11,A37U A64G A73G G133U,-4.19
12,C38A C85U C87U C116A,-0.329
13,C36G C69A U78C C85U U102C U127A,≤ -4.2
14,A37C C95G U134G,-3.26
15,C35G U55A C85A A113C,-3.96
16,A37G G50U C72U C105G U139C,≤ -4.2
17,C36U U61A C95U U102C,-4
18,C35U C93A C132U A147C,-4.05
19,A37U C95U A122G,-1.77
20,C36A C75A C79U A115U A120C C125U,≤ -4.2
21,A37C G84U,-2.07
22,C35U C54U G65U G83C C95U C103G A106G,≤ -4.2
23,C36U U56G U61A,≤ -4.2
